This is an account of results in doi:10.1101/2025.07.11.664294 (2025).

Bridges are numbered along the chain shown (N, C = ends).

The target in the test is Neuropilin-1 (NRP-1) 22-644 (Homo sapiens, UniProt O14786). The experiment in a line: SPR. (In general: In SPR one partner is held on a chip, and binding of the other changes the refractive index at the surface.)
Chain of Neuropilin-1 (NRP-1) 22-644 (O14786 22-644): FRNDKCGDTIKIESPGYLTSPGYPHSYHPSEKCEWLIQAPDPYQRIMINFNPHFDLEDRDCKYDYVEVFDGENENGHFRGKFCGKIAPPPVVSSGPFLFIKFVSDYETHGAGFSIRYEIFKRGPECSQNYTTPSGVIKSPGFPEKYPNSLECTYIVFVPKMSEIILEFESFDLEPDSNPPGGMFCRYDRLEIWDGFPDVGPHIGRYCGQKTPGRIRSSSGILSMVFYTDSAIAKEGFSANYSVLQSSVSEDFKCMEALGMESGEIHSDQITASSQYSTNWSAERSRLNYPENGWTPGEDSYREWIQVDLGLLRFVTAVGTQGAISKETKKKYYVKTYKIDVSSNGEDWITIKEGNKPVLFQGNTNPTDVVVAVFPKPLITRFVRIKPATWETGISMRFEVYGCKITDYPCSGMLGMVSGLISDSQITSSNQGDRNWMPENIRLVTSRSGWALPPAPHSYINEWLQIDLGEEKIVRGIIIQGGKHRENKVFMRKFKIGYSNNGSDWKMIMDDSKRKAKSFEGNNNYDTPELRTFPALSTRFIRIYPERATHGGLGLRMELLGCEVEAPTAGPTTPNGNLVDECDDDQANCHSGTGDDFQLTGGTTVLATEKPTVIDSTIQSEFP

B1: P78 (Ctx fragment) 27-34 (peptide)
chain: Ac-KCYGPQCL-NH2
modifications: disulfide 2-7
SMILES: CC(=O)N[C@@H](CCCCN)C(=O)N[C@H]1CSSC[C@@H](C(=O)N[C@@H](CC(C)C)C(N)=O)NC(=O)[C@H](CCC(N)=O)NC(=O)[C@@H]2CCCN2C(=O)CNC(=O)[C@H](Cc2ccc(O)cc2)NC1=O
With B1, the Kd (commonly the free concentration of one partner at which half of the binding sites on the other are occupied at equilibrium, for simple one-to-one binding) was found to be 267 µM.
